Assay: soluble fraction after stress (log2 fold change); higher = more stays soluble; pooled small domains, quantitative proteomics
Details: stress: 75 degC
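Also: 20 min heating vs room temperature control held 20 min.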

Sequence	soluble fraction (log2)
HMSDKNVYGKYKNVFLSDEEFSELKQFYPNDWSDRIETLSEGIELKGYKYKNYLLAIKKWAEYEGQKAD	-0.47
HMSDKPIFIDTAGIAALSAIGFSKYQATIIFNYIKKGGAIYTVKDLAKIYSIDQKTIDLTQSKIIFS	0.365
HMSDKPRYYINGNTLFISDKSVKKVLFSDLSGRSILHTTETAINIATFRGAHILTVIYTDGSTKSEVIF	-1.47
HMSDLLYAHPTEKGFQLVNVTQKVVMVILKTAAPNVYTVKGKNAIVFKEGNSWFYSENHNKKLLNIK	-3.18
HMSDLQTGDINQDGTVDEKDLSLLHSYNLELIKTISNAADLNEDGVINGLDEAYLKRLFLQNSDP	-0.122
HMSDLTEVIVKFSGDIQPIRQDLDAQVEILLKGYAIITLSPNKIGRLYSYPQIESIEIPKNLYI	-2.73
HMSDPASLQRRLMSDPELTARILDSPFTRSLLDDPNLLRQMVNANPQLRRAMDANPQLRHAL	-0.267
HMSDPEAFIRQTVAAAEPEGIALSVLGKRVRGKFRTFKLRDLGYAQFRPYLGDLDGIKVEQRDGQSYARLD	-1.03
HMSDPSRKADFIAALSSLGGSAGNGKLREQLGWDEPTYDAVKQTLLDEGAITNGRGRGGSVALAG	0.976
HMSDPTDRLVLEAALKALGEEERQVVLLHAASGLKHREIARDLGLPLSTVLSRYSRALKKLQRYLTEEGVH	-1.2
HMSDPVDDLLLRISQQAGVARGQLVAELNMLVQDRFGGNLRHEAAAVLMAKRYGIEFRDLLPALREHLVKN	-0.804
HMSDPVKQVAMRILDLREISDYTVDKMAEVLNVPVEEYRKYESGEVDMPISFLVKIGEVFHVDMTELLTG	-1.55
HMSDQTYVKDPETGEIFRVHKRVWETGEFWRDPVWGNILGGVERGSELERLLREEGWRPLQQSLEGFPEQ	-0.284
HMSDRESYGRYRNVSLTLSEYESLKNEYPLYADKYIERLSEYMETAGKHYNNHYATILSWLSKDIK	-0.201
HMSDSGLPLPRFVSLGDDRVNARAGPGFRFPINWVYLRKNFPVEVIDEFGHWRRIKDIDGIEGWIHLSML	-0.793
HMSDTSELESIIAQIIEDNPKSIEDIGAGNQKAYGFLTGQVMKATKGQANPQVANKIIRELVARKLE	≥ 1.04
HMSDTVDITKLGIAGKTKEAAEALLKENGFSVESKEENSDTIEKGKVISYSPTKPKNGDRITLIVSSGKK	0.294
HMSEDTYNTLTKGTRVYNGVDYGAKYGYNPLYYFLNYNDLRIAYGADPAKLVEHYALFGIKENRVANRQIT	-1.33
HMSEEELETSGLVKRSAKGNLYDIFRHRVMVPIIDVRGAIIAFGGRVLDDSKPKYINSPETMVY	-0.0708
HMSEEQLKAFLEKVQGDTSLQEKLKAAADANAVVEIAKEAGFSISADDLKNAQSELSEEELE	-0.00468
HMSEEVDVPDLVGMQLEEAEKSLEPLGLKLKIAKEIPNSEFEKGKIVDQKTKAGEKVKTGYTIEVTVSSG	-0.126
HMSEFAYPISLNGKTKFNLALSLALTKEEIEKEVLANADVQKFLNGQTPKKLIVVPGKIVNVV	-0.386
HMSEGEMSQWIIAQAKQQGGGFQPDAARLLGSYVGNNTLRARQEIDKLLTYVGPSRVVTPEDVVLLTA	-0.23

Sequence	soluble fraction (log2)
HMSEHKFIVPEEFNLKRLDQTVAAQFEKISRTKISKIIKSSLLKVNDKVVTDQSIKIKQDDVITFTEIKDQ	-0.421
HMSEKRLHLVVDESDVNTRIDKYIADELDGYSRSFIQKLIKDNNVLVNGRAVKPNYNIGISDNIDIVLPKL	0.0186
HMSELIDSLTEAVRSAPDAVPLRLHLAELLLADGQRDRAFAQLGQVLAKDPQNARALEMLGVGS	-0.129
HMSELSEVIEKTFEELPEELKLIVKLREIDDLSYDEISNKIGIPIGTVRSRLHRAREILINIIKN	-2.5
HMSELSGSQLKAIREEKHIPLEQVASATRIRLSLLEALEMDEYAELGSRTQARGFLKLYADFLGVPFEA	-1.53
HMSEMDNMEWVREQYFQNMIYEIGEWVRDKKTGIVGEVVKRGTNYVTVVQEDFSLHKIWLEDLETTEK	-0.841
HMSEMLPFDEARRQFERDYLVQLLKLTSGNVSQAARLARRNRTDFYALLGRHQLEPASFKPE	-0.971
HMSEMVIPEDFLAALETNPQAKAFYATLNRQNQYAVYHRLQTAKRPETRAKRIADFVAQLAAGKRF	-1.03
HMSEPHPPFQVVAQFPYKSEYEDDLNFEKDQIITVTSIEDDEWYYGDFKNKGGELVEGIFPKSFVTVK	-0.31
HMSEPQYKVLFSNLDDRDGGAIVTALGAMNVPYKYNDTGTALLVPADRVYDARLQLASQGLPRG	0.262
HMSEPTVVAINETLTSERLDRYLTTQLPHISRGGIQRLLRKGNILVDGKPAKPTQHPVAGQTVEITWPIPK	-0.607
HMSEQMQVGELVFQLHRKAIKNLHINVLPPDGFVRVSAPQAMTETAIRTAVISRLPWIRRQQQAFAAQ	-3.48
HMSERVVEIDPSQLRPGLFIRLPSGWMNHPFLFNQFRINSAEQVEIIQKLGLKTVQYLPERSSTQALPRA	-1.95
HMSESEDFQNRWRPWRSLLDDETPVVREALVDQLKLFPEEGRLFLQQMSEEDDPISARHAFELIKSLGW	-0.363
HMSETAVTYNEDFEADGSLRPNEQAVLDAFTGVLKLTVSELEKKTGLRNVVPVVASLMAKGAVEVSEELK	-0.0304
HMSETEWGEIYRKVMAAGLIPARSVRERLLALPSIEPLLQAAEAAGSKGMLDETLLDSLLSKT	0.0662
HMSETLESYTTRLKQLEEIADSFQGVDKTFAIQAGREIRVMVVPEQISDDDMILLARDISNQIEENLDY	-0.234
HMSEVIYVAEDNVGQRIDVFLVNKLVDASRANIQKNIVDGVILVNNKNVKANYKLRLGDVVEIRTQ	-1.38
HMSEVPAAVLVTGGSINLREAPSTDATIIDVAQVGEKMTVLAEKNSWYQVSRGGRNVWVASWVVDPLT	-0.066
HMSEVTYQETLRLLRRAIDVLPQQSRQIILLGLSGKNNNEVAEMLGISVNTVKTLKKGAYKSLRNSL	-1.87
HMSEYITEGWLREKFGLGWGTEVHLPLDSRLTPAAHQLLEERKIVIKYIDAEGRVFNPDKSGEEAPVQ	-0.41
HMSEYVIVTGEKVNLRVGPGMDYEIAGQVVKGDKLELLASEGDWSKVKTGSGSIYYISSSLVQKA	-0.157
HMSFDGFSDRLKSVLNSGKYTQKEAAEKINISEYSFTKYLNGRIPQTEILYKIARLYNKSMEWLLTGKDPI	-2.74

Sequence	soluble fraction (log2)
HMSFGWELYKGKEGIADTDLHPSGWIRIADKRVFAVSEGEFIEKGLEIIVLSVDGNRIVVRELK	-1.93
HMSFGWETLEGKEGVTDTDLHPSGWVKVGDEKIFVVSQGEFLGKGTDIVVVSVDGNRVVVKELI	-0.998
HMSFKQARFMMDAANGKALAWLYSHAEVLDRKDQGENIEIHVMISPADLSRFVNAFGYQPVQS	-1.07
HMSFMFEISVIRSQYNMQDPESKTGFYNAIAKKLLEFPEKLERDNYTEAVAREYMIPETDLKNLVNSMGG	-3.12
HMSFNGTILSNYQKTYPNLAKFTYDQANDALVYEGNFIKLNGYGLSRIDPVFFNMNPDEIFIFIKNG	-3.85
HMSFNTNENKNLLWELMNKHNLFKDIDNQHYQEVQKLFEEEIVFISNNNKSLDLVEQNKKFLSSIITKLNK	-1.84
HMSFPQVELNTNKGRIVLELNSEKAPKTVANFLEYVRDGFYDGVIFHRVIDGFMIQGGGFDENFKEKA	-0.6
HMSFSPYLVRVSITDLNIRKGPGTNYAKTGKFTGKGVFTIVEMQTGKGSDTGWGRLKSGAGWISLDYTEKI	-3.47
HMSFSQNIGKRIREERLRLNLTQEKLAEDVNLSMAYIGQVERGDRSLTLDNLIIVAKRLGVTIDYLLS	-4.13
HMSFTSQSVLIEIVRGTTQLTPLAAAVGANKREVVLAVHRLKQRGLVVSAGLGQYAATEAGRAFLTAGREV	-3.43
HMSFYSVVISQDGSMLVAENRNEIYSNEELLELASEVNEKTGTIGTIGSLMYYKADKGGYTLITFLDNS	-4.18
HMSGALDTVVGIRMLKLLSTPIEKSKAFQVGIINKDGKKLRDPTSGERQHYTFLNRFVFKVQYALMRS	-0.549
HMSGDYRPLYPNLPESEKSEAFNLLAGSALPARLDDRTGDIMVPADRYYEARMILANAGFAD	0.17
HMSGEMGIIVAKRLPIRSEPDELATRAFVLKAGTRVKIVKHLNGWLEIVHDGKAGYVQDLEVYVRVIG	-0.806
HMSGEPVKSTLPGNVFKILVAVGDSVKKGQRMFVLEAMKMEIDVNAPKDGLVTSIEVQQGQTVANGQILAK	-0.0981
HMSGIESIVIPLKGLDFDMISSTLTPQLKQAIKYDKQSDSIILVGTNAKVNIIAKQVNAMVEVYKLKT	-1.81
HMSGIGTTIKMLRENKNISQEELGNVLGVSDKTISSWEINRTEPKMGIVQLLADYFGVSTDYLIKG	-0.447
HMSGILINGELYKPGEQMSLKQRLSIQARIQMQGEDTVKPEMLKDFYNSGGPLSKEESSEYMKSQN	-0.515
HMSGIQNNFITRLKKVLAPTIGIAEEISDLLNISIDSAYRRIRGETDFTFEEIYIITRKHKISIDEIYG	-3.88
HMSGIVPAAPPLRPDLDIKWHTGDKVRHAKWGEGTIVSVKGEGEETELKIAFPGQGIRPFMQKYAPITR	0.218
HMSGLEDIKKKILEDAGIKKGSVKFVKVDKDYDDGIWKYEIDFVYDGKEYEYEIEVETGKILSRKTEKSD	0.00588
HMSGLVPAIGTKGEEGYIRESDIPGSNVKNPEEALAYMEWLKTQPSELLIPLYDEQGNVIGQFAVS	0.461
HMSGMEKLAIQEIEKEIKSFVKGDILIELTGKNRATAYVSEKNVGALIGKKGERINSIEKRLGVGIDVRPY	-0.23
